Assay results: the DeepSol protein solubility set

Test: soluble on expression in E. coli; label from the status in PepcDB or PDB records

Sequence | soluble on expression in E. coli
LYQHMQQQIQVQAAQNIALQDQLQQALIVPNQRIAQLEQQQLSDAKTFQELSKLATDQSQLQDRLNKLAQRSPTHWMASEAEYLVNMAGRKLWLEKDPRTATDLLKSADETIAAMNNPALLPIRKALAKDIAATTNLKSADIEGSVLALDALIGQLDKLPLNRADGEASTAEDTTISGDLNDWQSNLSKTWKALTQDFITIRHRTADVPALLAPDQQWYLVENIRHKLLQSQLALYRYDRAAYHQSLMMARQWIQSYFDVQAHQTSEAIAAIDKLATLELDPITLKAFEAKPLLLQLTSYGELTSLEEPQL | not soluble
LYRHFAHRPDDLYRLEWREYETLLARIFQSQGFDVELGPGRGDEGVDIRLIQRDPIGDIVTLVQAKKYGAGNKIDQTQVAALYGIQQSEDANFSMFVTTSAYAPVAKRFSAREKV | not soluble
LYVFDMDETLINADCAMIWNAFLVEKGIATQPNFIEEDQRLMALYAEGKMDMEDYLEFCMAPLADMPIAHVLMLVEECVEHHILPKQFEQSKTLIAQLDRDDIDMVIISASVTFLVEAVGRRLGIPVALGIDLVEKHGSYSAEIAGVPSYREGKVIRLKAWLDAQPESYSEVHFYTDSINDLPLCEYADYAYLVNPCPQLKARAD | not soluble
MAAAGTLERSFVELSGAERERPRHFREFTVCSIGTANAVAGAVKYSESAGGFYYVESGKLFSVTRNRFIHWKTSGDTLELMEESLDINLLNNAIRLKFQNCSVLPGGVYVSETQNRVIILMLTNQTVHRLLLPHPSRMYRSVSWLSAISFISQITLGVTNVVLERCLLELKEIWILVIPHQAYFDSYRLKLEHHHHHH | not soluble
MAAAREPELPQEAPATEPAPPPACRFFLEGRCRFGARCRQPHPGAPAPPGREAQPEAGAKKPPLRTAADVIQRIRWDPRLDPADFSVGYVDRFLGVREEPFSAFCWDQPLAALGPGVLAVPQHRVRFFRFHGRLVWDRASRTDLVFGSGSAAGRGPTILDAPNTEGAHGAEGAEWTLAGTGQEAQAAPKRGSTRPLCTGHQEPGVEEPGELEAAQERALGTAADLGTLAPRGRLAGVTEEALKPTAATRTTLLGGKEAQALGVPGGSAETTEAEWGPAAWPEDKRARLSVAAPCQPRPTHFVALMVTEPGLQAEVTKAQEYLVHVAPHCANFLVPSQNLHLTLALLRLAGAGEEAAAIGALRRALLAPGLNAPPRLSFRKLVLLGPHVLCAPPSPTLESMAQVLSQRLEAEGLSTLQSPGQLHPHLTVAKVPHGSQVHLPKLEFTLSQEVGCQPLQTLWLCRIGRTGGPFQPLAEIRLE | soluble
MAACRALKAVLVDLSGTLHIEDAAVPGAQEALKRLRGASVIIRFVTNTTKESKQDLLERLRKLEFDISEDEIFTSLTAARSLLERKQVRPMLLVDDRALPDFKGIQTSDPNAVVMGLAPEHFHYQILNQAFRLLLDGAPLIAIHKARYYKRKDGLALGPGPFVTALEYATDTKATVVGKPEKTFFLEALRGTGCEPEEAVMIGDDCRDDVGGAQDVGMLGILVKTGKYRASDEEKINPPPYLTCESFPHAVDHILQHLLAENLYFQ | soluble
MAAFAVDPQAPTLGSEPMMLGSPTSPKTGANAQFLPGFLMGDLPAPVTPQPRSISGPSVGVMEMRSPLLAGGSPPQPVVPAHKDKSGAPPVRSIYDDISSPGLGSTPLTSRRQANISLLQSPLVGATPPVPGQSMFSPANIGQPRKTTLSPAQLDPFYTQGDSLTSEDHLDDTWVTVFGFPQASASYILLQFAQYGNILKHVMSNTGNWMHIRYQSKLQARKALSKDGRIFGESIMIGVKPCIDKNVMENSDRGVLSSPSLAFTTPIRTLGTPTQSGSTPRVSTMRPLATAYKASTSDYQVISDRQTPKKDESLVSRAMEYMFGW | soluble
MAAFNDTLRAEIEEKKEDSVSERTTRNGKILNAKDEPEFGMNITPTTLFFKYPIGGIGYSFFTVTNTTSEKQAFKVKSSDNTWFRSKPSVGFIKSGEKVHVRVTFNSPDAGKERPERGSDNKNHVAIFHVAAGDAKTYKEAFAKKAADGVHHFFARHLAEPGAQVDKEADEKAPNGA | soluble
MAAIHINHDVFNKYHTNGKLRLTTGYVQEAIENNGYPGHDGIVQVLKGKVEQGEQLGHAFTFRIRISDGVFQYNALMSADIDDQIKREVEHLVEGTIIALTKFEIYDQGEGAKNCFLIKGYKILSRYHQVLTSPEVKPRSHSGKPDEHKGYRPNIIIEDVWPEAEGMAADYQENMANPPAAKAPKREFGEEASYNRAAAPEATRARAVPPPARRTASNTERGVMPIAMVTPYVSNFKIHGMVSRKEEIRTFPAKNTKVFNFEITDSNGDTIRCTAFNEVAESLYTTITENLSYYLSGGSVKQANKKFNNTGHDYEITLRSDSIIEAGGELLAAPKLILKRVKLGEIAGYAGQLIDVLVVVEKMDPEATEFTSKAGKSLIKREMELIDESGALVRLTLWGDEATKALVDDYVQKVIAFKGVIPREFNGGFSLGTGSATRIISVPEIAGVSELYDWYANVKPTTEVKMMSQAAGGSNEAPRTIAGLQEMQFGKDSDKGDYATVKAMITRVNPTNALYRGCASEGCQKKLVGENGDYRCEKCNKNMNKFKWLYMMQFELSDETGQVYVTAFGDSAAKIVGKSAAELGELHDESPDEYNAIFERLQFVPKMWRLRCKMDSYNEEVRQKMTVYGVDDVNQDKYIENLKQMIEQMQQMSDY | soluble
MAAKPGIPKGTRDFSPVEMAKRNYIFNTIRDVFHLFGYQQIETPSMENLSTLMGKYGDEGDKLLFKIQNSGDYFNGITDEELLSRNAVKLASKFCEKGLRYDLTVPFARYVVMHRDEISFPFKRYQIQPVWRADRPQKGRYREFYQCDADVVGSNSLLNEVELVQMIDRVFGKFGVRVSIKINNRKILTGIAEIIGEADKIVDITVAIDKLDKIGLENVNAELASKGIPQEAIDKLQPIILLSGSNEEKLETLKTVLATSEAGLKGVEESEFILKTVSALGVKSEVELDLTLARGLNYYTGAIFEVKALDVQIGSISGGGRYDNLTGVFGMDGMSGVGISFGADRIFDVLNQLDLYPKEAVNGTELLFVNFGDKEAAYCLPILTKVREAGVRAEIYPDASKMKKQMGYANDKQIPFVAIVGENEMNEGKLTLKNMTTGEQSLVTPDELLAVVKA | not soluble
MAAQRLGKRVLSKLQSPSRARGPGGSPGGLQKRHARVTVKYDRRELQRRLDVEKWIDGRLEELYRGMEADMPDEINIDELLELESEEERSRKIQGLLKSCGKPVEDFIQELLAKLQGLHRQPGLRQPSPSHDGSLSPLQDRARTAHP | soluble
MAARNAGTARPGGPNRTCQFKLVLLGESAVGKSSLVLRFVKGQFHEYQESTIGAAFLTQTVCLDDATIKFEIWDTAGQERYHSLAPMYYRGAQAAIVVYDITNQESFQKAKNWVKELQRQASPNIVMALAGNKADVANKRTVEYEEANAYAEDNALLFMETSAKTSMNVNDIFMAIAKKLPIGPAQGEPTGTVDMNQPQQQQKGSCCK | not soluble
MAARQQLALLSVSEKAGLVEFARSLNALGLGLIASGGTATALRDAGLPVRDVSDLTGFPEMLGGRVKTLHPAVHAGILARNIPEDNADMNKQDFSLVRVVVCNLYPFVKTVSSPGVTVPEAVEKIDIGGVALLRAAAKNHARVTVVCDPADYSSVAKEMAASKDKDTSVETRRHLALKAFTHTAQYDAAISDYFRKEYSKGVSQLPLRYGMNPHQSPAQLYTTRPKLPLTVVNGSPGFINLCDALNAWQLVKELKQALGIPAAASFKHVSPAGAAVGIPLSEEEAQVCMVHDLHKTLTPLASAYARSRGADRMSSFGDFIALSDICDVPTAKIISREVSDGVVAPGYEEEALKILSKKKNGGYCVLQMDPNYEPDDNEIRTLYGLQLMQKRNNAVIDRSLFKNIVTKNKTLPESAVRDLIVASIAVKYTQSNSVCYAKDGQVIGIGAGQQSRIHCTRLAGDKANSWWLRHHPRVLSMKFKAGVKRAEVSNAIDQYVTGTIGEDEDLVKWQAMFEEVPAQLTEAEKKQWIAKLTAVSLSSDAFFPFRDNVDRAKRIGVQFIVAPSGSAADEVVIEACNELGITLIHTNLRLFHH | soluble
MAASLWMGDLEPYMDENFISRAFATMGETVMSVKIIRNRLTGIPAGYCFVEFADLATAEKCLHKINGKPLPGATPAKRFKLNYATY | soluble
MAATCSWKTCEETEQNTFIVKFSNGNVKNAEELDFTVFKHSNASNPRKKNRRIVVADSDRLPYVGSNFGSGSLQSNNMCKYFVGVLDKQTMQMKVHSAQLFNMLPVIPGEATEAESENQPSTFRDKVDALIEAFGTNKQKRALSSRRLNAVGNETLHQAVAQAASNIIDQKGVEALRNEVIETEAQSDAALFLPPCNANADKLEDVYPFDQLLTPNEFESLKEVGAKYATLSSEDLQKMRDNHCPQTVLKHLETLSKDEADRDRQCRCAWYLSFVIRASLQKRISFKFGSDDGCPRIIINKVLKNFTVESFHNGSLRNTVSMSMRMKMASYCLALLLHMGGQTANLTLLHRDMSISENKMLEVAKAMGLTLSRQNALGKEGGLIEDEHRMVSLVLPLVHYDRRTERKKRKRMN | soluble
MADAIQTAPRFTGKNRDPQLFTVTNHYNEAGTGPLEAAICRHNPLHVVSAALRHQHEESQCPDRKWNPSEKIVKYKDMQ | not soluble
MADDRGVFPGQWALSGGGVESGERIEEALRREIREELGEQLLLTEITPWTFSDDIRTKTYADGRKEEIYMIYLIFDCVSANREVKINEEFQDYAWVKPEDLVHYDLNVATRKTLRLKGLL | not soluble
MADEALFLLLHNEMVSGVYKSAEQGEVENGRCITKLENMGFRVGQGLIERFTKDTARFKDELDIMKFICKDFWTTVFKKQIDNLRTNHQYLAFTCGLIRGGLSNLGIKSIVTAEVSSMPACKFQVMIQKL | not soluble
MADGLRVALVAGEASGDILGSGLMQALRARHPDIEFIGVGGPRMEAEGLSSYFPMERLSVMGLVEVLGRLPELLRRRKRLIRTLIEARPDVMIGIDAPDFTLGVEHKLRQAGLRTVHYVSPSVWAWRQKRVLKIREACDLMLALFPFEARFYEEHGVPVRFVGHPLANTIPLQADRAAARARLGLPADGQVLALMPGSRGGEVGKLGALFLDTAQRLLVERPGLRFVLPCASAARREQIEQMLQGREPLPLTLLDGASHEALAACDAVLIASGTATLEALLYKRPMVVAYRVAGLTYRILKRLVKSPYISLPNLLAGRLLVPELIQDAATPQALAATLSPLLDDGSQQVEFFDAIHRALRQDASAQAA | not soluble
MADHSIQGKVALIAGGAKNLGGLIARDLAAHGARAIAIHYNSPASKADADATVAALQAAGAQAVALQGDLTTAAAVEKLYADALAAVGRPDIAINTVGKVLKKPFSEISEAEYDEMAAVNAKSAFFFLKEAGRHVNDHGKIVTLVTSLLGAFTPFYSAYAGTKAPVEHYTRAAAKEFGARGISVTAVGPGPMDTPFFYGQESPEAVAYHQSAAALSPHSPTGLTHIEDVVPFIRHLVSDGWWITGQTLLINGGYTTK | not soluble
MADRIELRGLTVHGRHGVYDHERVAGQRFVIDVTVWIDLAEAANSDDLADTYDYVRLASRAAEIVAGPPRKLIETVGAEIADHVMDDQRVHAVEVAVHKPQAPIPQTFDDVAVVIRRSRRGGRGWVVPAGGAV | soluble
MADSQTSSNRAGEFSIPPNTDFRAIFFANAAEQQHIKLFIGDSQEPAAYHKLTTRDGPREATLNSGNGKIRFEVSVNGKPSATDARLAPINGKKSDGSPFTVNFGIVVSEDGHDSDYNDGIVVLQWPIG | soluble
MADYNIPHFQNDLGYKIIEIGVKEFMCVGATQPFDHPHIFIDMGSTDEKICPYCSTLYRYDPSLSYNQTNPTGCLYNPK | not soluble
